Data set [1] concerns the molecule itself. The data set can be described thus: one-colour scanning fluorescence correlation spectroscopy.
Data set [2] deals with the molecule itself. The data set is described as above. This is another data set of the same source.
Data set [3] deals with the molecule itself. The data set can be described thus: two-colour scanning fluorescence.
Data set [4] deals with the molecule itself. The data set can be described thus: two-colour scanning fluorescence. The source holds these as a separate data set.
Data set [5] concerns the molecule itself. The data set can be described thus: two-colour scanning fluorescence. This is another data set of the same source.
Data set [6] deals with the molecule itself. The data set can be described thus: two-colour scanning fluorescence. The source holds these as a separate data set.

B1: APLP1–yellow fluorescent protein (APLP1-YFP) (natural protein, UniProt P51693 39-650, looked up)
chain: SLAGGSPGAAEAPGSAQVAGLCGRLTLHRDLRTGRWEPDPQRSRRCLRDPQRVLEYCRQMYPELQIARVEQATQAIPMERWCGGSRSGSCAHPHHQVVPFRCLPGEFVSEALLVPEGCRFLHQERMDQCESSTRRHQEAQEACSSQGLILHGSGMLLPCGSDRFRGVEYVCCPPPGTPDPSGTAVGDPSTRSWPPGSRVEGAEDEEEEESFPQPVDDYFVEPPQAEEEEETVPPPSSHTLAVVGKVTPTPRPTDGVDIYFGMPGEISEHEGFLRAKMDLEERRMRQINEVMREWAMADNQSKNLPKADRQALNEHFQSILQTLEEQVSGERQRLVETHATRVIALINDQRRAALEGFLAALQADPPQAERVLLALRRYLRAEQKEQRHTLRHYQHVAAVDPEKAQQMRFQVHTHLQVIEERVNQSLGLLDQNPHLAQELRPQIQELLHSEHLGPSELEAPAPGGSSEDKGGLQPPDSKDDTPMTLPKGSTEQDAASPEKEKMNPLEQYERKVNASVPRGFPFHSSEIQRDELAPAGTGVSREAVSGLLIMGAGGGSLIVLSMLLLRRKKPYGAISHGVVEVDPMLTLEEQQLRELQRHGYENPTYRFLEERP
Usually stoichiometry N stands for a count of units in the complex or per binding partner. Take B1: the “stoichiometry N” value in data set [1] amounted to 1.9; in data set [2], 2; in data set [3], 1.8; in data set [4] it was 6; in data set [5], 3; in data set [6] it was 21.
